Patent US20240425867A1, “NUCLEIC ACID-BASED ASSEMBLY AND USES THEREOF” (Rheinische Friedrich-Wilhelms-Universität Bonn, priority 2016, published 2024)
pIC50: −log10 of the molar value.

Legend:
[1] = Serum stability in PBS-buffered fetal calf serum (PAGE of 32P-labeled aptamer); format: in vitro ADME; conditions: 10% PBS-buffered FCS, 37° C., 0 to 72 h
Description: (§1) Serum stabilities of trCLN3, its two point mutant non-binding variant trCLN3.mut and their corresponding lipid-functionalized derivatives trCLN3-L4 and trCLN3.mut-L4 were investigated in fetal calf serum (FCS) and human blood serum. For this purpose, the aptamer motifs were labeled at their 5′-end with ^32P to form radiolabeled oligonucleotides. The degradation tests of all the aptamer motifs were performed for 60-72 h at 37°° C. 6 pmol (12 μl of 0.5 μM) of the radio-labeled aptamer (5′-end-labeled with γ-^32P) was incubated in a volume of 300 μl freshly thawed PBS-buffered FCS or human blood serum (270 μl serum+30 μl 10×PBS). For each measurement, 10 μl of the samples were removed, mixed with 90 μl of gel loading buffer (80% formamide+5 mM EDTA+0.01% SDS) and subsequently stored at −20° C. Aliquots of samples were taken after indicated time intervals of 0, 0.3, 1.5, 3, 6, 24, 48, 60 and 72h respectively. The serum stability of the aptamer in FCS or in HBS at different time intervals were analyzed on a denaturing PAGE by loading 10 μl of each sample onto a 10% TAE-Urea gel and running the gels for 90 minutes at 350 V. Gels were wrapped in clingfilm and exposed to a phosphorimager screen in a closed cassette over a period of 12 h and finally the residual intact aptamer bands were analyzed by scanning the screen in a phosphorimage-scanner (FujiFilm FLA 3000). Intensities of the residual intact aptamer bands were calculated applying AIDA image analyzer software program. Serums half-lives of the selected aptamers were determined by using a half-life curve-fitting data analysis program (GraphPad Prism).

[2] = Atomic force microscopy (AFM) size of nanoconstructs; format: physicochemical; conditions: Gaussian fit of at least 50 nanoconstructs
Description: All AFM images of the trCLN3-L4 and HyApNc aggregates were taken by using a Nanowizard III AFM (JPK instruments, Berlin) in tapping mode. ACTA probes with silicon tips were used for imaging in dry mode in air. A volume of 3 μL (5 mM) of a solution of magnesium acetate (MgAc2) in water was deposited on a freshly cleaved mica surface layer and allowed to incubate for 3 minutes and afterwards the surface was rinsed with 2×10 μL of milli-Q water and dried under air pressure. For imaging a volume of 3 μL of the trCLN3-L4/HyApNc solutions in ultra pure water were spotted on the pre-treated mica surface and allowed to incubate for 1 min. After 1 min incubation on the mica surface, the excess sample solution was gently shaken off and the mica surface was blown dry with air pressure and mounted to the AFM microscope for immediate imaging. […]
In a first step. we synthesized the lipid-modified phosphoramidite 1 with a C12-lipid chain incorporated at the 5-position of the uridine base (FIGS. 2A-B). […] We evaluated the CMC of the trCLN3-L4nanoconstructs using Forster resonance energy transfer (FRET; Example 3; FIGS. 6A-C; Table 2) and fluorescence studies with pyrene-loaded trCLN3-L4 nanoconstructs (FIGS. 7A-B; Table 3). […] The trCLN3-L4 3 nanoconstructs have an average diameter of 21.2±1.5 nm (FIG. 8C, upper panel), consistent with the size of 25 nm measured by TEM.

[3] = Serum stability in PBS-buffered human blood serum (PAGE of 32P-labeled aptamer); format: in vitro ADME; conditions: 10% PBS-buffered HBS, 37° C., 0 to 72 h
Description: as §1

cMet = target: T1, cMet (Homo sapiens, UniProt P08581); assay: Competitive filter-binding assay against γ-32P-labeled trCLN3; conditions: competition with γ-32P-trCLN3, cMet ~50 nM, competitor 1 μM-25 pM, 37° C.
T1 construct: cMet-Fc, which represents the ectodomain of cMet fused to the Fc domain of human IgG1 was purchased from R&D Systems; purchased R&D Systems
T1 sequence (P08581 25-932 limits assumed): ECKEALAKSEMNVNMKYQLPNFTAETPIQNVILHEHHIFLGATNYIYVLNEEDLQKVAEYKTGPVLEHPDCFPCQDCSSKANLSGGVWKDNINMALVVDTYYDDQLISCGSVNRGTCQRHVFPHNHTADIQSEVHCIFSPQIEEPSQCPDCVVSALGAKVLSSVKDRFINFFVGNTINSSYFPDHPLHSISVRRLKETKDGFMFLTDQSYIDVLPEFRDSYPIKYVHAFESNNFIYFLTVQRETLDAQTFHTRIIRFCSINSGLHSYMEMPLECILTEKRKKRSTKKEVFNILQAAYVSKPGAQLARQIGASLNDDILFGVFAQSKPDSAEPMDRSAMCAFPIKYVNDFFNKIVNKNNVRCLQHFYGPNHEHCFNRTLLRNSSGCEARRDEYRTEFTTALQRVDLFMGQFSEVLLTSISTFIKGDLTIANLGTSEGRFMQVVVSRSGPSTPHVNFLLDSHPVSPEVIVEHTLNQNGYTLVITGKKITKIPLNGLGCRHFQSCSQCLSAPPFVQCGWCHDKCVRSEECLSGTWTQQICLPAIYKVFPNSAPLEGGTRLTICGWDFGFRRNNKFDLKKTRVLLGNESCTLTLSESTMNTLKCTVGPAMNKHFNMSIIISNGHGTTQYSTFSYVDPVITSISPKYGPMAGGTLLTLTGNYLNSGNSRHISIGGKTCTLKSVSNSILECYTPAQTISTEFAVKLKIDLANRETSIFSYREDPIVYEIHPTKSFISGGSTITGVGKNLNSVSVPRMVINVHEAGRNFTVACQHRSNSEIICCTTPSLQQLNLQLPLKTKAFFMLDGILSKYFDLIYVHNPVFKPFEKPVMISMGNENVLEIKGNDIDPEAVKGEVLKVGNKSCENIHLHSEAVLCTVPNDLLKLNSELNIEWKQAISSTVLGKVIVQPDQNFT
Description: To test the effect of lipid-modification on trCLN3 binding properties, we determined IC50 values for each trCLN3 derivative by a competitive filter retention assay in which varying concentrations of unlabeled 5′-(1-dodecynyl)-functionalized trCLN3 aptamers competed with constant amounts of γ-^32P-labeled trCLN3 in binding to cMet. Two control experiments were also performed using unlabeled trCLN3 and its two point mutant variant trCLN3.mut as competitors.
First, the trCLN3 motif was 5′-end-labeled with γ-^32P ATP using T4 polynucleotide kinase. An aliquot of 20 μL solution containing 50 pmol trCLN3. 6.7 pmol γ-^32P ATP and 20 U T4 polynucleotide kinase in 1× polynucleotide kinase buffer (New England Biolabs) was incubated at 37° C. for 45 min. followed by removal of unreacted γ-^32P ATP using an Illustra G-25 microspin column (GE Healthcare. München, Germany). The purity of the radiolabeled aptamer was confirmed using a 10% PAGE-gel.
0.25 mg/ml BSA. 2 mM MgCl2 in 1×PBS, pH 7.4. […] Residual radioactivity due to cMet bound labeled aptamers was quantified using Fujifilm Fla-3000 PhosphorImager and AIDA software. The curves were fitted with GraphPadPrism 3.02 plotting non-linear regression curve and the IC50 values have been calculated assuming a competition for single binding site.

trCLN3-L4: trCLN3 aptamer with four C12-lipid-modified dU residues at the 5′-end; self-assembles into micellar nanoconstructs (TGGATGGTAGCTCGGTCGGGGTGGGTGGGTTGGCAAGTCT; four 5' C12-lipid-modified dU residues, chemistry not fully specified)
serum half-life (t1/2) [1]: no significant degradation even up to 72 h | average diameter [2]: 21.2±1.5 nm | serum half-life (t1/2) [3]: no significant degradation even up to 72 h | pIC50 (cMet): 7.37
